# Results from a protein production outcome set (Wang et al. 2014).
# Assay: label from the status in PepcDB records
row,Sequence,protein production
1,MAYREKDTKKWTAQWFETNVMGEKKKRRKRGFETKREALEFERSKKLSNERSMDMKLSDFIEIYFSDKQNDLKDRTIKNKRYMMQQHIVPYFGNQMMSEIKASQIIQWQNEIQKKGYSDSYLRMIQNQLTSLFTHAAKIYDLPVNPCKKVKRMGNSDSRSLNFWTLDEYKQFIQTMEPGTRYYLMFEMLFWTGCRIGELLAITKADINFEKNQLSINKTYYRTGMQDIITEPKTKQSFRTIEIPEFLKEEIKEFVDGHYGMPDTERLFPVVQEAVQHKMKRQIELAGVKKIRVHDIRHSHVAYLIEKGVEPLLIRDRLGHKDIRITLNTYGHLYPNQQRKIANLLDNENGNAVTGLGEERDEC,failed
2,MGGIARLYGDSALAHFSQAHVCVVGVGGVGSWAVEALARTGIGRLTLIDLDNVAESNVNRQLHALTGDFGKAKVTALRERITQINPQCEVFEIEDFVTEDNLPEYFGKGFDFVIDAIDQVRVKAAMAAYFVERKQPFVLSGGAGGQKNPALIQTADLSRVTHDPLLANLRYTLRKRYGFSRDTKANMRVPCVYSTENIVPPQSREACSADAAPQGLSCAGYGASMLVTASFGLYCAQAAVEHIADKKLEHHHHHH,failed
3,EEHRGEEILAVFDTAFGQLLAADPAAFRVKFRKMAASAFAFYRGTAGLFYRDLTEDPDFGDQHGGAYLDERTSRVWIHGDLHAENFGTYMDSTGRLIFNVNDFDEAYVGPFTWDLKRFAASVALIGYAKAFSDEQITELVRVY,failed
4,MEKFTLSRIINIIMFLYILSIYLFTFRDGLNSISNFLALTFIAAIWSNVLLTRKKIVFNKFLFIYFLFILVCFVSVFFAINQSIAVSKIKTIILIYFLMISLVNYIDTFEKLRSFLLSFVYSGFITGVYILASSDFSQVTRYGSELGNVNSIGMIIGISSIFCFYFIIEEKKYLLYTPIMLINIFVVFLTGSRKALLFVVLTIIAILLIQQKAGIKGKIKALIGILVTLVISLYVIFNVELLYTIIGVRMEHLFSYILGKGANEGSINIRANMIDMGLDWFQERPITGYGIDNFRSLYGIEAIGGEFTYSHNNLVELLVGIGIIGTFLFYLTHFIVLKGLYKESKKNQKSALCYSFIAIIGIYIILSVGLIYYYDKHISMILAIGSIIYKIGKPSGEELTQKTLE,failed
5,MTDQTRTSPLVNRLLKMISLCALGYLLIILAIIIPRGIQSVEQQKQELEEKLALSLSNSAAIALYVNNYDIASEVMDALLLHQEINAVKLASVDGIVFERTTIPSTYKEQNYWSDANRYRLDSPVDGNLIGYLMIHEDHQVIRQQAINQILDQIAVVLIQFLVTFIALIWIVRRLVGKPLTDLSQALSEVRPDHDRKVAVAAEDHHNEIGLVAKSINEFIDASHQALLRERELRQQIERWESYYRTIAEQDTLTGLKNRLGCEKFVLRKQRASTTMVLLLIDLDGFKQVNDTLGHAAGDEVLREIAKRFYALAQTHFSDFVVGRLGGDEFAIYIPLDEFVAESIERFAAQLIESSSEPIGLGQQSAQVGCSIGISHMNSLHIDLEKLLLQADKAMYWVKYRGKHGYHIYRMGEEILPLPSAKELKQDQFR,failed
6,MNDFKNQWLRKRTFAIPASRLTGRLTTLKSDVPAADSLFWKLWNGSLDTAVQVLQTDYFKGIAAGTLDPNAYGSLMVQDGYYCFRGRDDYATAATCAQDETLREFFKAKAKSYDEYNETYHQTWHLREASGLIPGTDIKDYADYEAYVAGSLASPYMCVVMLPCEYLWPWIANFLDGYTPTNSLYRFWIEWNGGTPNGAYQMGNMLEQYRDKIDEDKAVEIFNTAMNYELKVFTSSTILTTIENGK,not failed
7,MVNTNLEELRTQVDQLNIDLLELISKRANLVQEIGKIKGTQGSLRFDPLREREMLNTILAANEGPFEDSTVQKLFKEIFKAGLELQEEDHSKALLVSRKNKKEDTIVTVKGLPIGNGEPVFVFGPCSVESYEQVAAVAESIKAKGLKLIRGGAFKPRTSPYDFQGLGLEGLKILKRVSDEYGLGVISEIVTPADIEVALDYVDVIQIGARNMQNFELLKAAGRVDKPILLKRGLSATIEEFIGAAEYIMSQGNGKIILCERGIRTYEKATRNTLDISAVPILKKETHLPVMVDVTHSTGRKDLLLPCAKAALAIEADGVMAEVHPDPAVALSDSAQQMDIPEFEEFWNAILASNLVPHKIK,not failed
8,GYNRRFDAGFVAARAAVASGELGALHTVRSTTLDPAPPPPAYVAASGGIFRDCSVHDFDIIRWVTGREVVEVYATGGNRGADYIAAAGDADTTAAVLTLDDGTLAVVSNSRHNARGHDVRMELHGFRDSIAVGLEDRLPLRSVEPGTSFPAGTPHDFFMDRFAAAYRAELTAFTEVVAGRRPSPCTVADALEAGWIAEACTLSLHSHRPVTVEEVRRQS,failed
9,MPPFLPLQVIKGVGPKRAVILAEAGIRSIADLYDCFPRRYLDRTTIKKIGALRDGETVTVVGSVTGTRFEGGGRGGSRFKAQITDGSGVLELTWFRGVHYFSKTIRSGELVAAHGRVTFFGRTPGMQHPDFDKLGGDDESGDGQRDDELYKTGAIIPIYPTTEAMKQAGLNSAALRRIVHRAFREHPLRITEYLSPEIIAANNLMPIGEAYRQLHFPDSAEQLERARYRMKWSELFFAQLFFALRRTEERRHLTSVRFERSGEKTASLHERLPFTMTSAQKQAVREIYHDLKSGRQMNRLLQGDVGSGKTLVAQFAMTLAVDNGLQAAFMAPTEILAFQHYAGLKNSLEPLGIRVALLTGRQKKKEREEKLARLERGEIDIAVGTHAIIEAGVQFRRLGLVIIDEQHRFGVLQRKALQEKAENPHVLLMTATPIPRTLTMGIYGDLDVSIIAEMPAGRKPIQTRLCCEAEKPELYRLLRKQIAEGRQAYIVYPLVEESEKIDLKAATESYEQLRREVFPELRLGLIHGQLPAAEKEAVMAEFRSGRLDILVGTTVIEVGVDVPNATIMVIEHAERFGISQLHQLRGRVGRGEHASSCFLVYTKLTGDAKDRLQAMAATGDGFRLSEIDLQIRGAGNMLGREQSGAASGLRIADLLTDGDIMRAARAAAFELIRRDETLTHPENALIRDYYMTHFRKRISLADVG,failed
10,MDIVTNKIVVEKYNFETTMEENQPFENKIELEVHEVEPVDGNVELMAKGKIFKITIPFLLVLENFRIDGRISRIIQLKDFFGQFSDLEAKDVEGLSNPLIDYIKRLTYDVTEIAFDEPGVSLDF,failed
11,MDVQFAILAFTSLFSILNPFGVIPTYLVLTSQYSKVEKIKIIRKSMLAAFIILMMFALLGNQIIGFFGISIPAIKITGGVLLFLIALDMIQGNTSKVEKSPKLESHLKSHAEEIEEMDEIAIVPLTVPLLTGPGSISAVIAMMAQTSDFDGKISVIIAISLCIIISYFVLKFSKDLEKMLGKIGFKVLTKMMGLVLTAISIQMALDGILMVFG,failed
12,MINSVITQMAEELRKASKVALFSHVSPDGDCIGSMLGIGLALEALGKEVAMFNPDPIPRNLSFLPGVDKITQSMPDPLPETLLFVDCADLQRVQLQREDLPADAVILNLDHHISNQNFGRINWVDSQAAASGELAYALVRRLNVELTQEIAANFYTALLTDTGSFKYANTTAKTHQIAGELMETGISLGDIHHFVFDQTPMVKLELLRRGLNQLQFFAEGQLGMMTLRKQDFEESGAEESLSEGLIDHARTVEGVEVAVLLKEVKPDVVRVSLRSNRWFDVNRIADGFGGGGHQRAAGCTLHLSLEEAKQKVRQIIEEELKLGRSHLEHHHHHH,not failed
13,MSRFPRRFIDDSSMEDAGISLCPSIHYRPINPNDLDRLEQIHRDIFPIKYESEFFQSVVNGVDIVSWAAVDRSRPDDHSDELIGFVTAKFVLAKDSEIDDLIHYDSSKGEETLIYILTLGVVETYRNRGIAMSLISEVIKYASGLSVCRGVYLHVIAHNNAAICLYKRLMFRCVRRLHGFYLINRHHFDAFLFVYFINGSRTPCSPLEVAMFVVNYMKSGIKSVASKLANKDEKGLKWLFCKDTDCV,failed
14,MESVAFIQWCLEHLNYWTITLLMTIESSFIPFPSEVIIPPAAYKAAVNDELNIYLVVLFATIGADIGALINYYLAKWLGRPIIYKFANSRIGHMCLIDEAKVQHAESYFDKHGALSTFIGRLIPAVRQLISIPAGLARMKMHTFLLYTTIGAGLWNTILAVIGYYLSTVPGIESEEQLIAKVTEYSHEIGYCFIAIGIFIVGFLVYKGMKKK,failed
15,MSNAFEYLRTYVESTTETDAAVARAREDAAEFGLPAPDEMTGQLLTTLAATTNGNGSTGAIAITPAAGLVGLYILNGLADNTTLTCIDPESEHQRQAKALFREAGYSPSRVRFLLSRPLDVMSRLANDSYQLVFGQVSPMDLKALVDAAWPLLRRGGALVLADALLDGTIADQTRKDRDTQAARDADEYIRSIEGAHVARLPLGAGLTVVTKALEHHHHHH,not failed
16,MSPKKDKFLDNAQKFLVKGQLDRALREYEQAVAIDPKDVRVRQKYAELLVRANRKDDALKEFEVIGKYYSDNGFYLKAIAVYKQIQKLTPSNLDISLTLGALNEKQGLIGNALAEYKFVFDHYERSNRFIDAVAVLEKMLAADRDNLNIRLKLAETRHRANLIDDAYHDYTELARELRSKGDNAAYTRVCERIASMFPDRKDFLLTVAENQIRDGKAAAAIPVLKQIVGDDRWNPKALYLLADAARAVADPAMVKGAYGQIIKRFPGEITAIKGFLFSLKAEGNVDEAVRVLRHVEPELIKAEPETLEQFYLSFRDLSPDHPGIAEGLLRIRGTAGVDEPEPMVEQVPDVAEPEKEADFAPQPEESDSVMEEPPAEDIPWEEEIDISFDSDGASVEGNRPTEGEASESPSFLHDEGMSLVEADESPIRFDDSSEEETREVEVELADFSSITPDWLDGVPDSAMDKPGETTFSEGLSLDFTDGELEDVIPPPPLDSPMPKPDKYGLDGLFSAFKKGVGEQLTQDDTESHYSLGIAYKEMGLFDDAIVEFQSAARDPRRLADCITLQGICSREKGDPAKAEEYFRSGLAVEGLNREERLCLTYELALLYEMIGDRTRALAGYREALALNPGFRDVAQKIAILRSDGDTHDAADLELLDLDEVEEGAG,failed
17,MDTQTLNSDLRVFMHHIYEFEKGVRSMVLATLANDDIPYAEERLRSRQIPYFAQPTPNTERTNLFFGCKECMEAIRLFVSGRSLNSLTPEEDFIIGAMLGYDICRQCERYCRRKSNS,not failed
18,MEIFELILLMLSAVFLSNVLSRFLPSIAVPLIQVLLGIILAIPLGDHTMDINPELFLLLFMAPILFNDGARTDKKSLWKNRKAILSLSIGLVFVTVGVLGAFIHYLIPAIPFAAAFALAAALAPTDAVAVGALAEKVRVPHKIMHILEGESLINDASGLVSFQFAVLALVTGTFSFMSAGTSFLLLSLGGIALGVVLSLLKIMLMRGLRQLGIENMTSFMLMEILLPFLIFMVAENIGVNGILAVVSGGMVHSFSYKRINPEMAQLNLLSKNTWSVIIFSLNGLVFVLLGTQLPQIMTAIWEDTGIHKSMLFLYIFGITFLLLALRFLWILFFRNYEENPHADLVSRLKNTFLYTVAGVRGTITLVSALSLPFVLGQGNAFPERDLLIFIAAGVIITTLLLANFTLPLFAAKKDVVVADHTTAIALLRDVVGQLQRYKTDENEVEMNNVLKMYNGRIFSLMEHKEVSATEKELRRLTQEWQLENTRRLVFERKIDTGVGLSLMMRLGKRLYVQTRAQKYRARMRYRQLLSHSIRDFRIVPLSFEERRKERAKLQTENNQFVVQKLNELDKNEFNPEVISLYLMNFERALGSGKHKKETDNEELQTTIDLASQIERETIQHYFEKGTITRKEMKVYRDNLLAIEASFQLEF,failed
19,MQWIYLCFAILFEVAGTTAMKLSDGLTKLVPSILIFVFYVVSFAFLSFALKGMEMSVAYAVWSGMGIVTITTIGFIYFGESINIIKILAILFILVGVVILNFNSTAHEAKKKEMVEERIH,failed
20,MSKRANKLVIVTEKVLLKKVAKIIEEAGATGYTVVDTGGKGSRNVRSTGKPNTSDTDSNVKFEVLTENREMAEKIADQVAIKFFTDYAGIIYICEAEVLYGRTFCGPDGC,not failed
21,MPGTVGVLSGARSLLLSMVASVTAAGGNAAIVGQPDIGLLAAVEMGADLSRLAMIPDPGTDPVEVAAVLIDGMDLVVLGLGGRRVTRARARAVVARARQKGCTLLVTDGDWQGVSTRLAARVCGYEITPALRGVPTPGLGRISGVRLQINGRGRLEHHHHHH,failed
